This is an account of results in patent WO2025083273A1 (dated 2025).

Numbering of substitutions follows the chain as printed.

The labels stand for the following.
T1: DR3-8i (human)
T1 construct: also called purified monomeric DR3-8i antigen protein
T1 chain: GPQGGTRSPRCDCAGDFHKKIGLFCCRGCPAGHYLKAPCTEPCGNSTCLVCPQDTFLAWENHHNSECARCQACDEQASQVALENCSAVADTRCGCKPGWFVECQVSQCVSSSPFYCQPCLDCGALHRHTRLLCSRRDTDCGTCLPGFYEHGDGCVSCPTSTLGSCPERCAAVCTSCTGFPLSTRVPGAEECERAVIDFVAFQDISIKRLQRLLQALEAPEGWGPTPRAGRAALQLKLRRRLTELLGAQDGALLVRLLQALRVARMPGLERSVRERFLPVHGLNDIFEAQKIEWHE

T2: human DR3 (TNFRSF25) expressed on cells (human, UniProt Q93038 25-417)
T2 sequence: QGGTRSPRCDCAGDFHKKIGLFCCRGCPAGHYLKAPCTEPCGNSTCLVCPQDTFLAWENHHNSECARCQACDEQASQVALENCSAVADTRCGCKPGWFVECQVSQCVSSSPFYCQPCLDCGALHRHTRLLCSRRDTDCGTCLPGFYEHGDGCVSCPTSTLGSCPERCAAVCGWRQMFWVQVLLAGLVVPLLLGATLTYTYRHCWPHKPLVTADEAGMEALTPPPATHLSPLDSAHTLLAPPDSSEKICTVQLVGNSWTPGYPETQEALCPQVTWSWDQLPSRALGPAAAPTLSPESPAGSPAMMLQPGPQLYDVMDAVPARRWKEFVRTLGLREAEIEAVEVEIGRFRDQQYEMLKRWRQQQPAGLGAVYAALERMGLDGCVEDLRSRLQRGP

B1: VHg9/VLg11 (antibody, human IgG1, V domains shown)
VH: EVQLVESGGGLVKPGGSLRLSCAASGFTFSSYAMSWVRQAPGKGLEWVSTISDGDSYSYFPDSVKDRFTISRDNAKNSLYLQMNSLRAEDTAVYYCARDRIYGSVQYYAMDYWGQGTLVTVSS
VL: DIVMTQSPDSLAVSLGERATINCRASESVEFSGTSLMQWYQQKPGQPPKLLIYAASNVESGVPDRFSGSGSGTDFTLTISSLQAEDVAVYYCQQSRKLPYTFGQGTKLEIK
notes: human IgG1
B2: VHg2/VLg2 (antibody, human IgG1, V domains shown)
VH: B1 VH with E1Q, V2M, E6Q, V37I, A97T, Q115R
VL: DIQLTQSPSSLSASVGDRVTITCRASESVEFSGTSLMQWYQQKAGLAPKLLIYAASNVESGVPSRFSGSGSGTDFTLTISSLQPEDFGTYYCQQSRKLPYTFGQGTRLEIK
notes: human IgG1
B3: VHg1/VLg12 (antibody, human IgG1, V domains shown)
VH: B1 VH with E1Q, E6Q, K13Q, A75S, S78T, A92S
VL: EIVLTQSPATLSLSPGERATLSCRASESVEFSGTSLMQWYQQKPGQAPRLLIYAASNVESGIPARFSGSGSGTDFTLTISSLEPEDFAVYYCQQSRKLPYTFGQGTKLEIK
notes: human IgG1
B4: VHg1/VLg2 (antibody, human IgG1, V domains shown)
VH: B1 VH with E1Q, E6Q, K13Q, A75S, S78T, A92S
VL: B2 VL
notes: human IgG1
B5: VHg3/VLg13 (antibody, human IgG1, V domains shown)
VH: B1 VH with E6Q, T28K, V48L, T69I, A88V, A92G
VL: B2 VL with L4M, A44P, L46K, L77F, F87I, G88A, R107K
notes: human IgG1
B6: VHg6/VLg12 (antibody, human IgG1, V domains shown)
VH: B1 VH with E1Q, V5Q, E6Q, K13Q, S49A, K76R, Q115R
VL: B3 VL
notes: human IgG1
B7: VHg10/VLg11 (antibody, human IgG1, V domains shown)
VH: B1 VH with K13Q, A75S, S78T
VL: B1 VL
notes: human IgG1
B8: VHg10/VLg4 (antibody, human IgG1, V domains shown)
VH: B1 VH with K13Q, A75S, S78T
VL: B1 VL with I2V, N22S, G45R, P48L, K107R
notes: human IgG1
B9: VHg10/VLg5 (antibody, human IgG1, V domains shown)
VH: B1 VH with K13Q, A75S, S78T
VL: B3 VL with A9G, A19G, A64D, G72E, S81R, F87L, K107R
notes: human IgG1
B10: VHg2/VLg11 (antibody, human IgG1, V domains shown)
VH: B1 VH with E1Q, V2M, E6Q, V37I, A97T, Q115R
VL: B1 VL
notes: human IgG1
B11: VHg6/VLg2 (antibody, human IgG1, V domains shown)
VH: B1 VH with E1Q, V5Q, E6Q, K13Q, S49A, K76R, Q115R
VL: B2 VL
notes: human IgG1
B12: VHg3/VLg12 (antibody, human IgG1, V domains shown)
VH: B1 VH with E6Q, T28K, V48L, T69I, A88V, A92G
VL: B3 VL
notes: human IgG1
B13: VHg3/VLg11 (antibody, human IgG1, V domains shown)
VH: B1 VH with E6Q, T28K, V48L, T69I, A88V, A92G
VL: B1 VL
notes: human IgG1
B14: VHg6/VLg4 (antibody, human IgG1, V domains shown)
VH: B1 VH with E1Q, V5Q, E6Q, K13Q, S49A, K76R, Q115R
VL: B1 VL with I2V, N22S, G45R, P48L, K107R
notes: human IgG1
B15: VHg10/VLg12 (antibody, human IgG1, V domains shown)
VH: B1 VH with K13Q, A75S, S78T
VL: B3 VL
notes: human IgG1
B16: VHg2/VLg12 (antibody, human IgG1, V domains shown)
VH: B1 VH with E1Q, V2M, E6Q, V37I, A97T, Q115R
VL: B3 VL
notes: human IgG1

In one assay the target is T1, DR3-8i. The experiment in a line: BLI, IgG captured on protein A, DR3-8i in solution; Experiment 1.
Regarding B1, the Kd came to 0.192 nM. That is a sub-nanomolar value.
As for B2, binding was characterised by a dissociation constant (Kd) of 0.001 nM.
As for B3, the Kd was determined as 0.001 nM.
B4 gave a Kd of 0.316 nM.
Still for that read-out and setting: the same measure for B5: 0.464 nM.
Take B6: the Kd came to 0.227 nM.
The same measure, in the same setting: with B7 the figure was 0.166 nM; with B8, 0.242 nM.
In turn, B9 had a Kd of 0.233 nM.
The molecule B10 came in with a Kd of 0.0636 nM.
B11 returned a Kd of 0.227 nM.
B12 came in with a Kd of 0.39 nM.
Still for that read-out and setting: with B13 the figure was 0.364 nM; with B14, 0.25 nM.
Molecule B15 came in with a Kd of 0.175 nM.
B16 returned a dissociation constant (Kd) of 0.0644 nM.

A further assay deals with T1, DR3-8i. As to the kind of experiment: BLI, IgG captured on protein A, DR3-8i in solution; Average.
With B1, the Kd was found to be 0.188 nM. This counts as sub-nanomolar.
B2 showed a Kd of 0.106 nM.
B3 yielded a Kd of 0.0228 nM.
Molecule B4 had a Kd of 0.159 nM.
With B5, the Kd was found to be 0.427 nM. This Kd is about 2.7-fold higher than that of the molecule before.
Molecule B6 returned an equilibrium dissociation constant (Kd) of 0.157 nM.
The same measure, in the same setting: with B7 the figure was 0.205 nM; with B8, 0.204 nM.
The same measure, in the same setting: with B9 the figure was 0.246 nM; with B10, 0.0536 nM.
For the molecule B11, the Kd is 0.193 nM.
As to B12, the Kd was found to be 0.4 nM. Compared with the last molecule, the Kd is about 2.1-fold higher.
Regarding B13, binding was put at a Kd of 0.491 nM.
In turn, B14 displayed a Kd of 0.198 nM.
On the same count and under the same terms, with B15 the figure was 0.181 nM; with B16, 0.121 nM.

Another assay has as its target T2, human DR3 (TNFRSF25) expressed on cells. The experiment in a line: cell-based or functional assay.
Take B1: the “EC50 (pM), DR3 Jurkat reporter” value turned out to be 261 pM and the “Signal (FLU)” value worked out at 3.27e+06 FLU.
For the molecule B2, the “EC50 (pM), DR3 Jurkat reporter” value is 103 pM and the “Signal (FLU)” value is 2.5e+06 FLU.
For B3 the same measures were 322 pM and 2.76e+06 FLU.
As to B4, the “EC50 (pM), DR3 Jurkat reporter” value worked out at 336 pM and the “Signal (FLU)” value amounted to 2.44e+06 FLU.
Regarding B5, the “EC50 (pM), DR3 Jurkat reporter” value came to 1770 pM and the “Signal (FLU)” value was 2.66e+06 FLU.
For B6, in that order: 134 pM and 2.47e+06 FLU.
Regarding B7, the “EC50 (pM), DR3 Jurkat reporter” value amounted to 245 pM and the “Signal (FLU)” value turned out to be 3.24e+06 FLU.
For B8 the same measures were 570 pM and 3.17e+06 FLU.
For B9, in that order: 634 pM and 3.08e+06 FLU.
In the case of B10, the “EC50 (pM), DR3 Jurkat reporter” value is 136 pM and the “Signal (FLU)” value is 2.9e+06 FLU.
For B11 the same measures were 118 pM and 2.44e+06 FLU.
For B12, in that order: 1480 pM and 2.6e+06 FLU.
B13: the “EC50 (pM), DR3 Jurkat reporter” value was 1230 pM and the “Signal (FLU)” value was 2.38e+06 FLU.
B14: the “EC50 (pM), DR3 Jurkat reporter” value was 115 pM and the “Signal (FLU)” value is 2.68e+06 FLU.
For the molecule B15, the “EC50 (pM), DR3 Jurkat reporter” value is 132 pM and the “Signal (FLU)” value was 3.56e+06 FLU.
Take B16: the “EC50 (pM), DR3 Jurkat reporter” value was 117 pM and the “Signal (FLU)” value is 2.68e+06 FLU.

For the next assay, the target named is T1, DR3-8i. As to the kind of experiment: BLI, IgG captured on protein A, DR3-8i in solution; Experiment 2.
The molecule B1 registered a Kd of 0.184 nM.
In turn, B2 returned a Kd of 0.21 nM.
In the case of B3, the affinity, expressed as Kd, was 0.0445 nM.
Consider B4, for which the Kd came to 0.00202 nM.
B5 displayed a Kd of 0.389 nM.
On the same count and under the same terms, the same measure for B6: 0.0876 nM; for B7: 0.244 nM; for B8: 0.167 nM.
On the same count and under the same terms, the same measure for B9: 0.259 nM; for B10: 0.0435 nM.
In turn, B11 registered a Kd of 0.159 nM.
Take B12: the Kd came out at 0.409 nM.
Still for that read-out and setting: the same measure for B13: 0.618 nM; for B14: 0.146 nM.
B15: the affinity, expressed as Kd, was 0.188 nM.
For the molecule B16, the Kd was 0.177 nM.

The term Kd denotes the free concentration of one partner at which half of the binding sites on the other are occupied at equilibrium, for simple one-to-one binding. Low readings indicate tighter binding, high ones weaker binding.
